Results from patent US9301997B2, “Method of vaccination for limiting articular inflammation in rheumatoid arthritis and multiple sclerosis by administering IL-23 peptides” (PEPTINOV SAS, priority 2009, dated 2016).

Legend:
[1] = target: T1, murine IL-23 (Mus musculus, UniProt Q9EQ14); experiment: Neutralization assay for murine IL-23 (IL-17 secretion by purified mouse splenocytes); type: cell-based; details: purified IgG of immunized rabbits, result in words
T1 sequence (Q9EQ14 22-196): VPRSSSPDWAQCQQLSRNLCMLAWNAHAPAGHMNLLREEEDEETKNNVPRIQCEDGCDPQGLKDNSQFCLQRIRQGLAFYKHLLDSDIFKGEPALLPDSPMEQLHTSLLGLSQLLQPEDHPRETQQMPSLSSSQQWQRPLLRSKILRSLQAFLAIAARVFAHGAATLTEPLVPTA
T1 sequence (P43432 23-335 partner): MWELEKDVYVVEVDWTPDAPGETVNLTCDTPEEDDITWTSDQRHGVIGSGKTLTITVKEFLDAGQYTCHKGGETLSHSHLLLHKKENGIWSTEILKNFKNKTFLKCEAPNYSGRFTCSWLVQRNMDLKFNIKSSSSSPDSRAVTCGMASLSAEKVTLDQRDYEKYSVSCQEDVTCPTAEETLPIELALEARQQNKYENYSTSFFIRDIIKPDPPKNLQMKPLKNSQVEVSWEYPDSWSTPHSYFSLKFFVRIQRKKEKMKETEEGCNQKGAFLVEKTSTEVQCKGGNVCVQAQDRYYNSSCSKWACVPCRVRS
Excerpt: The same IgG fraction from 4 immunized rabbits used in example 2 is used for a test of neutralization of the murine IL-23 cytokine. The test for murine IL-23 is based on the fact that purified mouse splenocytes secrete IL-17 in a dose dependent fashion, in response to the stimulation with bioactive […] IL-23 (cf. FIG. 3). One sees that the IgG fraction of rabbits immunized against the human IL-23 peptide can neutralize the biological activity of murine IL-23 in a dose-dependent fashion. Each bar represents the mean of the tests performed with the 4 purified antibodies; the standard deviation is also indicated. There are two negative controls (no mouse IL-23 and no inhibitor) and a positive control with an anti-murine IL-23 neutralizing antibody sold from the company R&D Systems (# ref: AF1619).
(§1) Four New Zealand rabbits were immunized with the cyclised peptide Y-C-KGE PAL LPD SP-C derived from the murine IL-23, similarly as in the protocol described in Example 1. The peptide was coupled with KLH via BDB and a supplementary tyrosine. The sera of the animals were purified by affinity column against protein A and the purified antibodies were tested in ELISA and in neutralisation assays. For ELISA, plates were coated either with murine or with human IL-23 and individual sera were tested at different dilutions to determine the Titer50. […]

[2] = target: T2, human IL-23 (Homo sapiens, UniProt Q9NPF7); experiment: Neutralization assay for human IL-23 (IL-17 secretion by purified mouse splenocytes); type: cell-based; details: for Neutralization of the biological activity of human IL-23: purified IgG of immunized rabbits, result in words; for Average % neutralization, SD: purified rabbit antibodies at a dilution of 1/20, 1 ng/mL bioactive hIL-23
T2 sequence (Q9NPF7 20-189): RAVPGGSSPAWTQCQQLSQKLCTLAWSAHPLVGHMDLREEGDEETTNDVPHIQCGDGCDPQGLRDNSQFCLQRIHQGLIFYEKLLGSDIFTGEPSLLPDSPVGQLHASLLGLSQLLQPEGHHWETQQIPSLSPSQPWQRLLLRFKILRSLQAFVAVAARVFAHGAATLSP
T2 sequence (P29460 23-328 partner): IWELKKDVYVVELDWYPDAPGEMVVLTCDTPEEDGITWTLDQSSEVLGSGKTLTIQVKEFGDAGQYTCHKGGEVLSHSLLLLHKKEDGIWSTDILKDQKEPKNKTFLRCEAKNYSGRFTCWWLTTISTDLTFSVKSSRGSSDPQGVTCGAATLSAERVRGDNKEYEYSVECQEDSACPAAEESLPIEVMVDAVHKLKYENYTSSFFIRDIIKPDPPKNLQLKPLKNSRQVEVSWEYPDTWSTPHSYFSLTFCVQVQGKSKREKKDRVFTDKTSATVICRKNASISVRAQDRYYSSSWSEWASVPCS
Procedure: The neutralization capacity of the purified total IgG fraction derived from the 4 immunized rabbits of example 1 was then tested in a neutralization assay for human IL-23. The test is based on the fact that purified mouse splenocytes secrete IL-17 in a dose dependent fashion, in response to the stimulation with bioactive human IL-23 (cf. FIG. 2). On the x-axis one can see the various dilutions of the IgG tested and on the y-axis the production of IL-17 as an optical density value. One sees that the IgG fraction of rabbits immunized against the peptide neutralize the biological activity of human IL-23 in a dose-dependent fashion. Each bar represents the mean of the tests performed with the 4 purified antibodies; the standard deviation is also indicated. The experimental conditions comprise two negative controls (no human IL-23 and no inhibitor) and a positive control with an anti-hIL-23 neutralizing antibody sold from the company R&D Systems (# ref: AF1716).
(§2) Four New Zealand rabbits were immunized with the cyclised peptide Y-C-KGE PAL LPD SP-C derived from the murine IL-23, similarly as in the protocol described in Example 1. The peptide was coupled with KLH via BDB and a supplementary tyrosine. The sera of the animals were purified by affinity column against protein A and the purified antibodies were tested in ELISA and in neutralisation assays. For ELISA, plates were coated either with murine or with human IL-23 and individual sera were tested at different dilutions to determine the Titer50. The titer corresponds to the dilution corresponding yielding an OD value at 50% of the maximal OD score (obtained for the smallest dilution, 1/50e). In parallel, different dilutions of the purified rabbit antibodies were tested on IL-23 neutralisation assays, similarly as in Examples 2, 3, and 4. Table 1 presents the average neutralisation obtained for the 4 purified antibodies rabbit at a dilution of 1/20 and in the presence of 1 ng/mL of bioactive mIL-23 or hIL-23.

[3] = test system: collagen-induced arthritis; experiment: Collagen-induced arthritis mouse model of rheumatoid arthritis, vaccination; type: in vivo; details: DBA/1 mice
Excerpt: The collagen-induced arthritis is a well-known model of rheumatoid arthritis, which reproduces the main features characterizing the human disease. The experimental disease is induced in the animal by two successive injections of type II bovine collagen in the tail. Clinical signs of disease occur a few days later, principally marked by a severe articular inflammation and the joint destruction. The articular inflammation can be quantified and reported as clinical scores by the person of the art: a score from 0 (no clinical sign) to 4 (total inflammation) is given for each articulation of each mouse. Groups of 10 mice are compared by the mean value of the scores obtained on […]. Similarly, the articular inflammation and destruction can be observed on histological sections of joints and be reported as histological scores by the person of the art.
DBA/1 mice (n=10 per treatment group) were vaccinated two weeks before the first injection of collagen either with the cyclised peptide derived from mIL23: C-DSD IFK GEP ALL PDS PME QL-C-Y (coupled with KLH via BDB and an additional tyrosine on the C-terminus), or with a control made of KLH alone, or with PBS alone. The injected dose in each mice corresponded to 100 μg of coupled peptide for the peptide group, and to 100 μg of KLH alone for the KLH control group, all in complete Freund's adjuvant. […]

[4] = test system: experimental autoimmune encephalomyelitis; experiment: Experimental autoimmune encephalomyelitis mouse model of multiple sclerosis, vaccination; type: in vivo; details: C57BL/6 mice, 100 μg/animal s.c. 4 times, 30 days follow-up, versus carrier and PBS groups, p=0.0003
Procedure: The experimental autoimmune encephalomyelitis in mice is a well-known model of multiple sclerosis. Three groups of 12 C57BL/6 mice were injected 4-times (s.c.) either with 1/100 μg/animal of the same peptide derivative of murine IL-23 as in example 9 coupled with KLH and emulsioned in CFA for the initial immunization and IFA (ISA51) for the subsequent boosts, or with 2/the carrier protein prepared in the same conditions, or with 3/PBS alone. The injections took pace at day 0, 15, 30 and 45.
To induce the experimental disease, mice were immunized (s.c.) at two sites with 200 μg of MOG peptide 35-55 in […] of Complete Freund's Adjuvant (CFA) at day 60. On the same day and after two days, mice were injected (i.p.) with, respectively 75 and 200 ng/mouse, of pertussis toxin (List Biological Laboratories). The mice were then assessed daily for clinical signs of EAE according to the following well-known scoring method (Sinha et al., J. Immunol., 2008): 0, normal; 0.5, limp tail; 1, tail paralysis; 2, mono or paraparesis of the hind limbs; 3, mono or paraplegia of the hind limbs; 4, paraplegia of the forelimb; 5, moribund condition or death. The follow-up was done on a period of 30 days as shown (cf. FIG. 7).

[5] = target: T1, murine IL-23; experiment: ELISA of purified rabbit antibodies on plates coated with murine IL-23; type: binding; details: antibodies of immunized rabbits, result in words
Procedure: (§3) Specific-pathogen-free New Zealand rabbits (n=4) are immunized with 100 μg of a peptide derivative of human IL-23 by five immunizations in CFA/IFA at day 0, 14, 28, 56 and 70. The peptide, whose sequence is C-GSD IFT GEP SLL PDS PVG QL-C-Y, was coupled to KLH with BDB. The sera from immunized rabbits were taken at day 82 after initial immunization, and the antibodies were purified by affinity chromatography against protein A. The purified antibodies were tested by ELISA at various dilutions and on a plate coated either by human IL-23 or by murine IL-23 (cf. FIG. 1). The mean OD value of the […] purified sera is given at the various dilutions for the ELISA tests against murine IL-23 (dotted line) and against human IL-23 (regular line).
as §1

[6] = target: T2, human IL-23; experiment: ELISA of purified rabbit antibodies on plates coated with human IL-23; type: binding; details: for Recognition of human IL-23 by antibodies raised against the peptide (ELISA): antibodies of immunized rabbits, result in words; for Average Titers50 (ELISA), SD: purified antibodies of rabbits immunized with the KLH-coupled peptide, plate coated with human IL-23, dilution yielding 50% of maximal OD
Procedure: as §3, §2

[7] = target: T1, murine IL-23; experiment: Auto-antibody response against murine IL-23 in immunized mice (serum ELISA); type: in vivo; details: OF1 mice immunized intra-muscularly, 100 μg/injection, sera tested at 1/500
Procedure: A peptide of murine IL-23 is coupled to KLH in the presence of a coupling agent (BDB). The peptide has been cyclised thanks to the addition of 2 cysteine residues coupled to BDB through an additional tyrosine; its amino-acid sequence is: C-DSD IFK GEP ALL PDS PME QL-C-Y. The vaccinal composition is injected intra-muscularly […] in ten (10) OF1 mice, at a dose of 100 μg/injection once every 2 weeks at days 0, 15, 30, 45. The sera of the animals are taken after the boosts at days 20, 38, 60 and 80 and are tested by ELISA at a dilution of 1/500 and on a coating of murine IL-23. The ELISA results are given as optical density (OD450nm) values. FIG. 5 presents the mean OD450nm value obtained at each time-point for the 10 mice tested. The grey line represents the response of mice immunized with the peptide derivative of IL-23 (triangles). The dotted lines represents the response of control mice immunized with the vehicle (empty grey diamonds), and control mice immunized with the carrier protein only (empty grey squares).

Neutralization of the biological activity of murine IL-23 [1] | Average Titers50 (ELISA), SD [6] | Average % neutralization, SD [2] [%] | Substance | Neutralization of the biological activity of human IL-23 [2] | Recognition of murine IL-23 by antibodies raised against the peptide (ELISA) [5] | Recognition of human IL-23 by antibodies raised against the peptide (ELISA) [6] | also measured
can neutralize mIL-23 |  |  | C-DSD IFK GEP ALL PDS PME QL-C | cross-neutralize hIL-23 |  |  | 
 |  |  | C-DSD IFK GEP ALL PDS PME QL-C-Y |  |  |  | Clinical scores of articular inflammation ([3]; 100 μg coupled peptide in CFA plus boosts in IFA, followed until day 80, versus KLH alone or PBS): statistically significant protection at the late stage of disease; Histological scores of articular inflammation and destruction ([3]; histological sections of joints): limits the extent of both the articular inflammation and destruction at the histological level; Clinical signs of EAE (disease activity score) [4]: statistically significant lower disease activity than the two control groups
neutralize its biological activity |  |  | C-GSD IFT GEP SLL PDS PVG QL-C-Y (GSDIFTGEPSLLPDSPVGQL; not fully specified; terminal cysteines and C-terminal tyrosine; listed as Homo Sapiens) [peptide derivative of human IL-23 subunit p19, region Gly105 to Leu124, with two terminal cysteines and a C-terminal tyrosine] | could neutralize the biological activity of the human cytokine | could recognize the murine IL-23 cytokine | could generate antibodies recognizing the whole human IL-23 cytokine | 
 | 2287 ± 175 | 39 ± 11 | C-LPD SP-C-Y (CLPDSPCY; sub-sequence of seq ID NO2 with N-terminal cystein and C-terminal cystein and tyrosin) [CLPDSPC-Y, peptide 2 derived from hIL-23] |  |  |  | 
 | 1758 ± 153 | 35 ± 7 | CTGEPSC (sub-sequence of seq ID NO2 with C-terminal and N-terminal cystein) [C-TGE PS-C, peptide 1 derived from hIL-23] |  |  |  | 
 |  |  | DSD IFK GEP ALL PDS PME QL (DSDIFKGEPALLPDSPMEQL; Mus Musculus) [peptide derivative of mouse IL-23p19] |  | could recognize both the murine and human IL-23 cytokines | could recognize both the murine and human IL-23 cytokines | Generation of anti-mIL-23 antibodies in mice [7]: anti-mIL-23 Abs could be generated in mice
